This assay has as its target glutathione S-transferase Pi 1 (GSTP1) (human (endogenous in 97H and Huh7)), P09211. Briefly: native gel or EMSA; total protein of 97H-PCSK9 and 97H-mock cells in nondenaturing, nonreducing buffer without boiling, PAGE gel without SDS; Western blot with anti-GSTP1. The conditions noted are these: remark: other sources report otherwise. For orientation: In EMSA bound probe runs differently from free probe, usually more slowly.

Consider one molecule from article PMC8763006.

As usually defined, the stoichiometry N is a count of units in the complex or per binding partner.

B1: glutathione S-transferase Pi 1 (GSTP1), P09211 1-210 (natural protein)
chain: MPPYTVVYFPVRGRCAALRMLLADQGQSWKEEVVTVETWQEGSLKASCLYGQLPKFQDGDLTLYQSNTILRHLGRTLGLYGKDQQEAALVDMVNDGVEDLRCKYISLIYTNYEAGKDDYVKALPGQLKPFETLLSQNQGGKTFIVGDQISFADYNLLDLLLIHEVLAPGCLDAFPLLSAYVGRLSARPKLKAFLASPEYVNLPINGNGKQ
Consider B1, for which the stoichiometry N was 2.
